Experimental data as given in US7301005B2, “Immunomodulatory peptides derived from heat shock proteins and uses thereof” (priority 2000, dated 2007).

Legend:
RA patients = test: Phase I clinical trial of mucosal tolerization to dnaJP1; assay type: in vivo, human; conditions: 15 RA patients, by mouth, 6 months
Method: FIGS. 26A to 26E show the results of treatment-induced modulation of T cell responses to dnaJP1. […] Evaluation was performed at monthly intervals. Controls included PHA as a general mitogen and dnaJpv (SEQ ID NO:28). Evaluation by FACS at monthly intervals of intracellular cytokine production (pro-inflammatory—FIGS. 26 B, C and D; toleragenic—FIG. 26E) by PBMC of the patients who were responsive at the screening. Results are expressed as % CD3+ cells in dnaJP1 stimulated/unstimulated cultures.
In the Phase I clinical trial, 15 RA patients were treated with three different doses of dnaJP1 (four times per day, by mouth) for 6 months. Entry criteria required clinically active disease and pro-inflammatory T cell responsiveness in vitro to the peptide.

[1] = test system: SFMC from patients with persistent oJIA; test: FACS analysis of CTLA+/CD25/CD4 positive cells after peptide stimulation; assay type: cell-based, human; conditions: FIG. 24A
Description: “TC” indicates tissue culture not stimulated. Bars represent SD.
FACS analysis was used to evaluate the percent of CTLA+/CD25/CD4 positive cells following stimulation of representative SFMC from patients with persistent oJIA with non-homologous human peptide 134. The % of CTLA+/CD25/CD4 positive cells, which are believed to have a regulatory function, was higher in the peptide treated cells as compared to cells maintained under control conditions (FIG. 24A). Expansion of the regulatory cells in response to peptide 134 correlated well with production of IL-10 in the same culture conditions (FIG. 24B).

[2] = test system: SFMC from patients with oJIA; test: Proliferative response of SFMC incubated with dnaJ and restimulated with autologous feeder cells plus peptide; assay type: cell-based, human; conditions: persistent n=16, extended n=15; p=0.05
Method: Results, expressed as stimulation index (SI), are shown as mean+SD.
In order to identify possible relevant epitopes on the bacterial dnaJ protein, PBMC and SFMC of patients with oJIA were incubated for 72 hr with dnaJ, and restimulated with autologous feeder cells the in presence or absence of selected E. coli derived MHC class II binder peptides for 96 hr.
(§1) In order to evaluate whether human homologous peptides could be the target of cross-recognition leading to self reactivity, human peptides derived from regions of HSJ1, HDJ1, or HDJ2 having sequence homology with E. coli dnaJ were studied. SFMC of 14 patients with oJIA presenting a SI to the recombinant E. coli hsp dnaJ greater than 3 were restimulated for 96 hr with autologous cells in presence or absence of human peptide 2, 3, or 5, which are homologs of bacterial peptide 4; human peptide 20, 21, or 23, which are homologs of bacterial peptide 22; or human peptide 164, 167, or 176, which are homologs of bacterial peptide 174. SFMC proliferative responses, pro-inflammatory cytokine production, and anti-inflammatory IL-4 levels were overall similar between the peptides derived from human dnaJ proteins and the homologous bacterial peptides.
Results are expressed as SI or pg/ml (mean+SD). […]
To explore the possible correlation of clinical features with the development of peptide-induced immune modulation, oJIA patients were grouped according to the course of disease, including those with persistent disease (n=16), and those with extended disease (n=15) o-JIA. (FIG. 25).

[3] = test system: SFMC from patients with oJIA; test: Cytokine production in culture supernatants of SFMC incubated with dnaJ and restimulated with autologous feeder cells plus peptide; assay type: cell-based, human
Description: Results are expressed as pg/ml (mean+SD).
Cytokine production to the same peptides was examined in culture supernatants of SFMC from patients with oJIA. […] SFMC from only one of 21 patients with oJIA produced detectable levels of the anti-inflammatory cytokine IL-10, and none produced detectable levels of IL-4.
as §1
Results are expressed as SI or pg/ml (mean+SD).

[4] = test system: CD3+CD69+ cells in PBMC and SFMC; test: Evaluation of activated CD3+CD69+ T cells after incubation with recombinant E. coli hsp dnaJ; assay type: cell-based, human; conditions: p=0.0002
Method: FIG. 1B provides an evaluation of CD69+ T cells from healthy subjects (CTRL) and patients with oJIA following 72 hour incubation with recombinant E. coli hsp dnaJ. Results, expressed as percentage CD3+CD69+ cells, are shown as mean+SD.
To evaluate whether dnaJ-specific T cells were enriched at the synovial sites of inflammation, synovial fluid mononuclear cells (SFMC) from all patients with oJIA were stimulated with dnaJ for 96 hr.

[5] = test system: PBMC and SFMC from healthy controls and patients with oJIA; test: Cytokine production in culture supernatants of PBMC or SFMC stimulated with recombinant E. coli hsp dnaJ for 72 hr; assay type: cell-based, human
Method: Results, expressed as pg/ml, are shown as mean+SD.
The production of the pro-inflammatory cytokines interferon-gamma (IFNγ) and tumor necrosis factor-alpha (TNFα), and the anti-inflammatory cytokines interleukin-4 (IL-4) and IL-10 was evaluated in culture supernatants of PBMC from healthy controls and in PBMC-SFMC paired samples from patients with oJIA incubated for 72 hr with or without dnaJ.

[6] = test system: peripheral blood mononuclear cells (PBMC); test: Proliferative response (stimulation index) of PBMC stimulated with antigen for 96 hr; assay type: cell-based, human; conditions: 10 healthy subjects vs 21 patients with oJIA
[7] = test system: synovial fluid mononuclear cells (SFMC) from patients with oJIA; test: Proliferative response (stimulation index) of SFMC stimulated with antigen for 96 hr; assay type: cell-based, human; conditions: for ratio SI SFMC/SI PBMC, dnaJ compared with TT: paired PBMC-SFMC samples from oJIA patients

Molecule: QKRAAYDQYGHAAFE (listed as Escherichia coli) [dnaJP1]
- treatment-induced change of T cell cytokine responses (RA patients): dramatic immune deviation from pro-inflammatory to regulatory-type cytokines

Molecule: SGPFFTFSSSFPGHS (listed as Homo sapiens) [Peptide 134, non-homologous human peptide (HSJ1)]
- % of CTLA+/CD25/CD4 positive cells vs control conditions [1]: higher
- Proliferative responses, extended disease vs persistent o-JIA [2]: significantly lower
- IL-10 production, extended disease vs persistent o-JIA ([3]; p=0.0012): highly significant difference
- IFN production, extended disease vs persistent o-JIA ([3]; p=0.076): border line level of statistical significance

B1: dnaJ: recombinant E. coli heat shock protein dnaJ (protein, UniProt P08622 2-376, looked up)
Chaperone protein DnaJ: AKQDYYEILGVSKTAEEREIRKAYKRLAMKYHPDRNQGDKEAEAKFKEIKEAYEVLTDSQKRAAYDQYGHAAFEQGGMGGGGFGGGADFSDIFGDVFGDIFGGGRGRQRAARGADLRYNMELTLEEAVRGVTKEIRIPTLEECDVCHGSGAKPGTQPQTCPTCHGSGQVQMRQGFFAVQQTCPHCQGRGTLIKDPCNKCHGHGRVERSKTLSVKIPAGVDTGDRIRLAGEGEAGEHGAPAGDLYVQVQVKQHPIFEREGNNLYCEVPINFAMAALGGEIEVPTLDGRVKLKVPGETQTGKLFRMRGKGVKSVRGGAQGDLLCRVVVETPVGLNERQKQLLQELQESFGGPTGEHNSPRSKSFFDGVKKFFDDLTR
- percentage of activated T cells (CD3+CD69+ cells), SFMC with respect to PBMC [4]: significantly higher
- cytokine production from PBMC of patients and controls ([5]; 72 hr): no difference
- IL-4 levels ([5]; controls and patients, supernatants from PBMC and SFMC): below the detection limit
- IL-10 production, SFMC vs PBMC ([5]; oJIA patients, 72 hr): comparable in the two compartments
- TNFα production, SFMC vs PBMC ([5]; oJIA patients, 72 hr): comparable in the two compartments
- IFNγ production, SFMC vs PBMC ([5]; oJIA patients, 72 hr, p<0.01): significantly higher production
- Proliferative responses of PBMC, healthy subjects vs oJIA patients [6]: not significantly different
- mean stimulation index (SI) of SFMC vs corresponding PBMC ([7]; oJIA patients, 96 hr, p=0.01): significantly higher
- ratio SI SFMC/SI PBMC, dnaJ compared with TT [7]: significantly (p=0.038) higher
- ratio SI SFMC/SI PBMC, dnaJ compared with TT ([7]; listed as recombinant dnaJ): significantly (p<0.02) greater
